Experimental data from paper PMC8100066, “PIM-induced phosphorylation of Notch3 promotes breast cancer tumorigenicity in a CSL-independent fashion” (The Journal of Biological Chemistry, 2021).

Biological target: T1, mouse CSL (amino acid residues 53-474), conserved and structurally ordered core domain (mouse, UniProt P31266 53-474)
T1 construct: The SMT3 tag was cut off with ubiquitin-like protease and separated by ion exchange; also called RBPJ; mCSL
Experiment: ITC; CSL in the cell at 10 μM, RAM peptides in the syringe at 100 μM; 20 °C; 50 mM sodium phosphate, 150 mM sodium chloride; triplicate, 20 injections of 14 μl
Conditions: both partners purified

T1 sequence (P31266 53-474): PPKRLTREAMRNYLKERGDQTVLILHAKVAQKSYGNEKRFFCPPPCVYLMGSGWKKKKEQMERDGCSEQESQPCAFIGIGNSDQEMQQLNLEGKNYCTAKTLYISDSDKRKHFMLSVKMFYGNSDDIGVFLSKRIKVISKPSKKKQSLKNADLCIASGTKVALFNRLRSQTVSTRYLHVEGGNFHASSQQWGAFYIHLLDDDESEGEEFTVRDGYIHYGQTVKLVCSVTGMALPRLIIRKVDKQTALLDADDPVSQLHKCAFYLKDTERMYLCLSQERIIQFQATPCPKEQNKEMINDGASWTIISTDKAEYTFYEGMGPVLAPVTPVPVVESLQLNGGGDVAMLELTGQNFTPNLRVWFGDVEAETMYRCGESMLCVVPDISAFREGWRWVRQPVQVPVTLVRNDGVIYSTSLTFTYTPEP

Kd: 22 nM
B1: human NOTCH1 RAM peptide (residues 1754-1781) (peptide)
peptide: VLLSRKRRRQHGQLWFPEGFKVSEASKK
notes: NOTCH1, human, RAM domain, residues 1754-1781; also called N1RAM; source: synthetic peptide (Peptide2.0, 95% purity)
